Test results as given in US20110086044A1, “Compositions and Methods to Inhibit HPV Infection” (University of Southern California, priority 2009, published 2011).

What was measured:
[1] = cited from earlier work
[2] = target: T1, ANXA2 heterotetramer (Homo sapiens, UniProt P07355); assay: L2108-120 peptide pulldown assay from Langerhans cells (silver stain, mass spectrometry, immunoblot); type: binding
T1 construct: endogenous in cells; host or cells: human monocyte-derived Langerhans cells (from PBL of healthy donors)
T1 sequence (P07355 2-339 limits assumed): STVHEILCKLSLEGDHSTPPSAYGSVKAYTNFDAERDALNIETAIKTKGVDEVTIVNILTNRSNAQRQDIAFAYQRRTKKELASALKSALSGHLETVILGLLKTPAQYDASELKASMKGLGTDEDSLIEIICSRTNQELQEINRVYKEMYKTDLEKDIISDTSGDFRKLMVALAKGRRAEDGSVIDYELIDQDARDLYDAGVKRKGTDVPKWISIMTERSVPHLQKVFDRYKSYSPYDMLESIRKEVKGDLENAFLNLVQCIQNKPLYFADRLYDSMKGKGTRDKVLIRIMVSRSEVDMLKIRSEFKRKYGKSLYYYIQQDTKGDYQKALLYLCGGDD
T1 sequence (P60903 2-97 partner limits assumed): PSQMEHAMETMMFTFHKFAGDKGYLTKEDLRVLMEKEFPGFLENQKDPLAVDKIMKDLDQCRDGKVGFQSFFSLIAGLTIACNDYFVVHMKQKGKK
Experimental: LC were incubated with either no peptide or 50 μg/5×10^5 cells of 6×His-L2108-120 peptide and subsequently cross-linked with DTSSP. Cells were then lysed and mixed with a Ni-NTA agarose slurry overnight and ten fractions were eluted. Non-reduced eluates were electrophoresed, transferred to nitrocellulose and probed with an anti-ANXA2 antibody or an anti-6×His antibody, followed by a peroxidase-labeled secondary antibody. Antibody binding was detected with enhanced chemiluminescence.
A. LC were incubated with either no peptide or (6×)His-L2108-120 peptide and subsequently cross-linked with DTSSP. Cells were lysed and mixed with a Ni-NTA agarose slurry and eluted. Reduced eluate 5 was electrophoresed and silver stained. The unique band right above ˜39 kDa was isolated and analyzed by mass spectrometry. One representative experiment of two is shown. B. LC were incubated with either no peptide or (6×)His-L2108-120 peptide and subsequently cross-linked with DTSSP. Cells were then lysed and mixed with a Ni-NTA agarose slurry overnight and eluted. Eluates were then electrophoresed, transferred to nitrocellulose and probed with either an anti-ANXA2 or an anti-ANXA2 light chain antibody. […]. One representative experiment of two is shown.
L2108-120 Peptide Pulldown Assay. […] The eluates were collected and analyzed by non-reducing immunoblots and reduced silver stain gels. […]

[3] = test system: HPV16L1L2 VLP; assay: HPV16L1L2 VLP uptake assay in siRNA-transfected LC (flow cytometry); type: cell-based, human; conditions: 6 days after transfection, VLP 15 min; compared to untreated and control siRNA treated LC
Experimental: (§1) FIGS. 8A & B are gel pictures showing downregulation of ANXA2 inhibits uptake of HPV16L1L2 VLP. A. LC were transfected using the Amaxa Nucleofector kit without siRNA (Untreated), with control siRNA or with two different ANXA2 siRNA sequences. The cells were incubated for 6 days before analysis of ANXA2 protein expression by immunoblot. GAPDH served as the loading control. One representative experiment of three is shown. B. LC were transfected using the Amaxa Nucleofector kit without siRNA (Untreated), with control siRNA or with ANXA2 siRNA #2. The cells were incubated for 6 days and exposed to CFDA-SE labeled HPV16L1L2 VLP for 15 min. Uptake was assessed by flow cytometry.
(§2) siRNA Inhibition of ANXA2 in LC and HPV16 VLP Uptake Assay. ANXA2 siRNA was synthesized at the USC Genomics Core (Los Angeles, Calif.) based on the sequences: ANXA2 siRNA #1 ([…])/([…]) (SEQ ID NO: 5); ANXA2 siRNA #2 ([…])/([…]) (SEQ ID NO: 6). Control siRNA was from (S76). ANXA2 or Control siRNA was transfected into LC using the Amaxa Human Dendritic Cell Nucleofector kit (Lonza) as directed by the manufacturer's instructions. The cells were incubated for 6 days before they were analyzed by an anti-ANXA2 immunoblot and used in an HPV16 VLP uptake assay. HPV VLP were labeled with CFDA-SE as described above. […] Finally, HPV16 VLP uptake by LC was assessed via flow cytometry.

[4] = test system: ANXA2; assay: siRNA inhibition of ANXA2 in LC, ANXA2 protein expression by immunoblot; type: cell-based, human; conditions: Amaxa nucleofection
Experimental: as §1, §2

[5] = test system: HPV16L1L2 VLP; assay: HPV16L1L2 VLP binding assay on Langerhans cells (flow cytometry, H16.V5 antibody); type: cell-based, human; conditions: increasing peptide concentrations (1-100 μg)/0.5×10^6 cells, 1 h at 4° C.
Experimental: LC were incubated with increasing concentrations of the L2108-120 peptide and subsequently incubated with HPV16L1L2 VLP. HPV16L1L2 VLP remaining on the surface of LC were detected using a L1 specific conformational antibody (H16.V5). Binding was assessed by flow cytometry.
HPV16L1L2 VLP Binding Assay. LC were incubated with the HPV16 L2 peptide aa 108-120 ([…] SEQ ID NO: 4) (Kawana et al. (2001) J. Virol. 75: 2331-6) at varying concentrations (1-100 μg)/0.5×10^6 cells for 1 h at 4° C. Subsequently, the LC were incubated with 0.25 μg of HPV16L1L2 VLP/treatment for 1 h at 4° C. and then incubated with an anti-L1 (H16.V5) antibody (a gift from Neil Christensen, Penn State University) at a concentration of 1:25,000 for 30 min at 4° C. The cells were then incubated with biotinylated anti-mouse-IgG2b at a concentration of 1:50 for 30 min at 4° C. Next, the HPV16L1L2 VLP/anti-L1/biotin treated cells were stained with streptavidin-FITC at a concentration of 1:50 for 30 min. The cells were washed between each incubation with 135 μl FACS buffer. In control experiments, cells were left untreated or probed with either peptide/anti-L1/biotin-strepavidin-FITC or VLP/anti-L1/biotin-strepavidin-FITC. Finally, HPV16L1L2 VLP binding to LC was assessed by flow cytometry. Binding is calculated as the MFI of the sample divided by the MFI of the untreated control multiplied by 100.

[6] = test system: HPV16L1 VLP; assay: HPV16 VLP uptake assay with SLPI: uptake of CFDA-SE labeled HPV16L1 VLP by Langerhans cells (flow cytometry); type: cell-based, human; conditions: SLPI 30 ug/ml (optimal concentration), VLP 15 min; Example 2
Experimental: (§3) LC were left untreated or incubated with 30 μg human recombinant SLPI (R&D Systems) for 1 h at 4° C. Subsequently, the cells were washed and incubated with CFDA-SE-labeled HPV16 L1 VLP or HPV16 L1L2 VLP at 37° C. After 15 min, cells were washed at 4° C., then fixed with 1% paraformaldehyde and analyzed for intracellular CFDA-SE by flow cytometry. Percent of VLP uptake was calculated using the following equation: [(MFI experimental plus SLPI)−(MFI background)/[(MFI experimental untreated cells)−(MFI background)]×100. Shown is the average uptake of 3 experiments (±SEM). *p=0.04 compared to untreated LC.
(§4) FIGS. 7A & B are charts showing that SLPI inhibits the uptake of HPV16L1L2 VLP by LC. A. LC were incubated with increasing concentrations of SLPI, then incubated with CFDA-SE labeled HPV16L1L2 VLP for 15 min. Uptake of CFDA-SE labeled HPV16L1L2 VLP by LC was assessed by flow cytometry. The mean percentage of uptake ±SEM of three separate experiments is presented (*P<0.05 by a two-tailed, paired t-test, as compared to the negative control). […] Uptake of CFDA-SE labeled HPV16 VLP by LC was assessed by flow cytometry. […]
(§5) HPV16 VLP Uptake Assay with SLPI. […] Finally, HPV16 VLP uptake by LC was assessed via flow cytometry. Percent uptake is calculated as the mean fluorescent intensity (MFI) of the sample divided by the MFI of the untreated control multiplied by 100.

[7] = test system: HPV16L1L2 VLP; assay: HPV16 VLP uptake assay with SLPI: uptake of CFDA-SE labeled HPV16L1L2 VLP by Langerhans cells (flow cytometry); type: cell-based, human
Experimental: as §3, §4, §5

Molecule: CCOCc1nc2c(N)nc3ccccc3c2[nH]1 [CL097]
- water solubility [1]: ≤ 20 mg/mL

Molecule: (6×)His-L2108-120 peptide: 6×His-tagged HPV16 L2 aa 108-120 peptide used for pulldown (HHHHHHLVEETSFIDAGAP)
- protein pulled down from LC, unique silver-stain band identified by mass spectrometry ([2]; 50 μg/0.5×10^6 cells, DTSSP cross-linking, elution 5): predicted to be annexin A2 (ANXA2)

Molecule: (CGGGAUGCUUUGAACAUUGAATT)/(UUCAAUGUUCAAAGCAUCCCGTT) (chemistry not given here) [ANXA2 siRNA #2]
- uptake of HPV16L1L2 VLP into LC [3]: significantly reduced the uptake of HPV16L1L2 VLP into LC
- time of optimal ANXA2 protein knockdown post-transfection [4]: 6 days

Molecule: LVEETSFIDAGAP (listed as Human papillomavirus) [L2108-120 peptide]
- HPV16L1L2 VLP bound to the LC surface [5]: significantly decreased numbers of HPV16L1L2 VLP bound to the LC surface
- proteins in pulldown eluates by immunoblot ([2]; anti-ANXA2 and anti-ANXA2 light chain antibodies): both ANXA2 and ANXA2 light chain were present

B1: SLPI: recombinant human secretory leukocyte protease inhibitor (R&D Systems), serine protease inhibitor and ligand of ANXA2; SEQ ID NO: 2 (protein, listed as Homo sapiens)
chain: MKSSGLFPFLVLLALGTLAPWAVEGSGKSFKAGVCPPKKSAQCLRYKKPECQSDWQCPGKKRCCPDTCGIKCLDPVDTPNPTRRKPGKCPVTYGQCLMLNPPNFCEMDGQCKRDLKCCMGMCGKSCVSPVKA
- internalization of HPV16L1 VLP by LC [6]: did not inhibit HPV16L1 VLP uptake
- uptake of HPV16L1L2 VLP into LC ([7]; 30 μg SLPI 1 h at 4° C., then VLP 15 min at 37° C., FIG. 2, 3 experiments): blocks HPV16 L1L2 VLP uptake into LC
- internalization of HPV16L1L2 VLP by LC ([7]; increasing concentrations (5-30 μg/ml) of SLPI, VLP 15 min, Example 2): LC internalized decreasing amounts of HPV16L1L2 VLP
